Measurements: patent publication US20130047297A1, “POLYNUCLEOTIDE MOLECULES FOR GENE REGULATION IN PLANTS” (priority 2010, published 2013)

Assays:
endogenous EPSPS = assay: EPSPS mRNA, EPSPS protein and shikimate in detached leaves after anti-sense ssDNA petiole uptake (Example 9); parameters: species or system Amaranthus palmeri; conditions: for increasing glyphosate efficacy, shikimate accumulation: 50 microgram/mL glyphosate; for suppressing levels of EPSPS mRNA and protein: 48 h incubation, #1 5 microM, #6 5 microM each (20 microM total), compared with other treatments
Description: Petioles of detached leaves of glyphosate-resistant Palmer amaranth were placed in 200 mM sucrose solution with oligonucleotides according to the treatments listed in Table 2. Control leaves were permeated with the anti-sense control (SEQ ID NO:14), and additionally treated with or without 50 micrograms/mL glyphosate. EPSPS mRNA, EPSPS protein, and shikimate levels were measured after 48 h incubation. To assess the effects of anti-sense ssDNA oligonucleotides on EPSPS mRNA, total leaf RNA was isolated and quantitative real-time RT-PCR was performed to compare EPSPS mRNA levels. To assess the effects of anti-sense ssDNA oligonucleotides on EPSPS protein, total leaf soluble protein was isolated, separated by SDS-PAGE, and EPSPS protein levels measured by Western blot using antibodies against maize EPSPS_TIPA. Effects of anti-sense ssDNA oligonucleotides on shikimate accumulation as an indication of suppression of EPSPS were assessed in two experiments: in experiment 1, the oligonucleotide-treated leaves were incubated with 50 microgram/mL glyphosate for an additional 48 h either by petiole uptake (control leaves were permeated with the anti-sense control (SEQ ID NO:14), and additionally treated with or without 50 micrograms/mL glyphosate); in experiment 2, leaf disc assays were performed on the oligonucleotide-treated leaves, and shikimate levels measured by HPLC (controls in this case were leaves that had not been treated with oligonucleotides but incubated with 50 microgram/mL glyphosate).

[1] = system: Nicotiana benthamiana phytoene desaturase; assay: Single PDS ssDNA oligonucleotide treatment, systemic silencing in organs and seed set (Example 12); type: in vivo
Description: Four-week old tobacco (Nicotiana benthamiana) plants were used in all treatments. Two fully expanded leaves (one cotyledon, one true leaf) were conditioned by dipping into freshly made surfactant solution (0.1% Silwet L-77 in double-distilled water) for a few seconds and allowed to dry for 15-30 minutes. Twenty microliters of a single-stranded DNA (ssDNA) 22-mer oligonucleotide with the sequence […] (SEQ ID NO:39), corresponding to the nucleotides at positions 1099-1120 of Nicotiana benthamiana phytoene desaturase (SEQ ID NO:2) was applied as a 25 micromolar solution in 0.01% Silwet L-77 in 5 millimolar sodium phosphate buffer, pH 6.8 to the top surface of each conditioned leaf for a total of 40 microliters (1 nanomole oligonucleotide) per plant. Control plants were treated with the Silwet solution without the DNA oligonucleotide.
Flowers of both control and ssDNA-treated plants were allowed to set seed. Seeds were collected from mature fruits, weighed, and allowed to germinate. Seed weights were identical (about 11 mg per 100 seeds) and seed morphology appeared similar between the ssDNA-treated and the control plants.
In a separate assay using a similar procedure, tobacco plants were conditioned by dipping in 0.1% Silwet L-77 in double-distilled water, allowed to dry for 15-30 minutes, and treated with the PDS ssDNA 22-mer (SEQ ID NO:39) applied as a 25 micromolar solution in 0.01% Silwet L-77 in 5 millimolar sodium phosphate buffer, pH 6.8 to the top surface of each conditioned leaf for a total of 40 microliters (1 nanomole oligonucleotide) per plant. Other plants were not conditioned with a surfactant treatment, but were treated only with 1 nanomole of the PDS ssDNA 22-mer (SEQ ID NO:39) applied either by infiltration with a needleless syringe (shown in FIG. 18B) or by hand application of drops to the leaf surface (not shown in FIG. 18B), and either as a 25 micromolar solution in 0.01% Silwet L-77 in 5 millimolar sodium phosphate buffer, pH 6.8 or as a 25 micromolar solution in 5 millimolar sodium phosphate buffer, pH 6.8 (without surfactant). Negative control plants were treated with the Silwet buffer solution without the DNA oligonucleotide. Results are depicted in FIG. 18B.

[2] = system: mRNA encoding phytoene desaturase in tobacco (Nicotiana benthamiana); assay: Topical PDS dsRNA on tobacco, bleaching (Example 4); type: in vivo; conditions: for plant outcome: 15 days after treatment with dsRNA; for phytoene desaturase silencing, leaf bleaching: day 9 after dsRNA treatment, about 0.6 micromoles of dsRNA per plant; for Northern blot analysis, siRNAs corresponding to the dsRNAs: in vivo
From the text: This example illustrates the utility of the polynucleotide molecules of the invention as herbicidal agents. Two dsRNA polynucleotide molecules were designed to target overlapping segments of mRNA encoding phytoene desaturase in tobacco (Nicotiana benthamiana). With reference to SEQ ID NO:2 and FIG. 5, a dsRNA targeting a 192 nt length (shown in bold in FIG. 5) and a 685 nt length (shown in underline in FIG. 5) of the mRNA were made using an Ambion® MEGAscript® kit. Separate dsRNA solutions were prepared. Tobacco plant leaves were pretreated with surfactant solution prepared as in Example 1 and then treated with either one of the dsRNA solutions applying about […] of dsRNA per plant.

[3] = system: Palmer amaranth phytoene desaturase (PDS); assay: Sequence specificity of PDS dsRNA on Palmer amaranth, bleaching (Example 11); type: in vivo; conditions: 0.6 micromolar polynucleotide, 40 microliters per plant; observed 3 days post treatment
Description: Palmer amaranth plants having 16 copies of EPSPS and 5-8 inches high were treated with 0.1% Silwet L-77 solution freshly made with ddH2O. Four fully expanded leaves per plant were dipped into the Silwet L-77 solution for a few seconds, and allowed to dry for 30 minutes to 1 hour before application of the polynucleotide composition. Individual polynucleotide solutions were made for each of the 678 by Palmer PDS dsRNA, 198 by Palmer PDS dsRNA, the 685 by Nicotiana benthamiana PDS dsRNA, and the 192 by Nicotiana benthamiana PDS dsRNA (0.6 micromolar polynucleotide in 0.01% Silwet L-77, 5 mM sodium phosphate buffer, pH 6.8). 10 microliters of polynucleotide solution (or buffer as a control) was applied to the top surface of each of the four pre-treated leaves per plant to provide a total of 40 microliters for each plant. Plants were kept in a growth chamber, and leaf bleaching was observed 3 days post treatment.

[4] = system: endogenous PDS, EPSPS, or RuBisCO genes from Nicotiana benthamiana; assay: PDS, EPSPS, RuBisCO anti-sense polynucleotides on Nicotiana benthamiana, plant height (Example 33); type: in vivo; conditions: PDS 25 nanomoles, EPSPS and RuBisCO 50 nanomoles of each per plant
Description: Nicotiana benthamiana plants were treated using a procedure similar to that described in Example 12. Polynucleotide solution (or mixed polynucleotides in the case of EPSPS and RuBisCO) were prepared in 0.01% (v/v) Silwet L-77 and 2% (w/v) ammonium sulfate in 5 millimolar sodium phosphate, pH 6.8. Two fully expanded leaves per plant were dipped into 0.1% Silwet L-77 solution freshly made with ddH2O for a few seconds, and allowed to dry. About 30 minutes later, 20 microliters of polynucleotide solution, was applied to each of the two pre-treated leaves. For PDS, each of 5 plants received 25 nanomoles of the PDS anti-sense polynucleotide (SEQ ID NO:34); for EPSPS, each of 5 plants received 50 nanomoles of each EPSPS anti-sense polynucleotide (SEQ ID NOS:279-284); and for RuBisCO, each of 5 plants received 50 nanomoles of each RuBisCO anti-sense polynucleotide (SEQ ID NOS:288-295). Paired control plants were treated with buffer (0.01% (v/v) Silwet L-77 and 2% (w/v) ammonium sulfate in 5 millimolar sodium phosphate, pH 6.8).

Anti-sense_PO1: SEQ ID NO:8, ssDNA anti-sense to Amaranthus palmeri EPSPS (antisense ACCCTCCACGACTGCCCTTT; listed as DNA, chemistry not fully specified; listed as Amaranthus palmeri)
increasing glyphosate efficacy, shikimate accumulation (endogenous EPSPS): increased accumulation of shikimate
suppressing levels of EPSPS mRNA and protein (endogenous EPSPS): more efficacious

PDS ssDNA 22-mer: SEQ ID NO:39, GGCAGTACAATTAAAGGAGATG, positions 1099-1120 of SEQ ID NO:2 (DNA, backbone not given here; listed as Nicotiana benthamiana)
amount of seed produced per fruit ([1]; compared to control plants): reduced amount of seed produced per fruit
bleaching of apical leaves, stems, and flowers ([1]; leaves conditioned with 0.1% Silwet L-77, 1 nanomole per plant): all displayed bleaching
germination rate ([1]; seeds from treated plants, control 95 out of 100): 4 out of 100
seed weight ([1]; seeds from treated plants, identical to control): about 11 mg per 100 seeds
bleaching of apical leaves, stems, and flowers ([1]; without conditioning by Silwet L-77, 1 nanomole by infiltration or hand application of drops): displayed bleaching of apical leaves, stems, and flowers

B1: dsRNA targeting a 192 nt length: dsRNA to Nicotiana benthamiana PDS, positions 914-1105 of SEQ ID NO:38 (nucleic acid, listed as Nicotiana benthamiana)
DNA: ACAGATTTCTTCAGGAGAAACATGGTTCAAAAATGGCCTTTTTAGATGGTAACCCTCCTGAGAGACTTTGCATGCCGATTGTGGAACATATTGAGTCAAAAGGTGGCCAAGTCAGACTAAACTCACGAATAAAAAAGATCGAGCTGAATGAGGATGGAAGTGTCAAATGTTTTATACTGAATAATGGCAGTA
modifications: dsRNA of this region
plant outcome [2]: one half of the treated plants appeared to be dead and the other half of the plants had most of the above ground tissues bleached
phytoene desaturase silencing, leaf bleaching [2]: visible leaf bleaching on apical leaves
Northern blot analysis, siRNAs corresponding to the dsRNAs [2]: presence of siRNAs
bleaching of leaves [3]: did not show bleaching of leaves

B2: dsRNA targeting a 685 nt length: dsRNA to Nicotiana benthamiana PDS, positions 421-1105 of SEQ ID NO:38 (nucleic acid, listed as Nicotiana benthamiana)
DNA: GCAAGAGATGTCCTAGGTGGGAAGGTAGCTGCATGGAAAGATGATGATGGAGATTGGTACGAGACTGGGTTGCACATATTCTTTGGGGCTTACCCAAATATGCAGAACCTGTTTGGAGAACTAGGGATTGATGATCGGTTGCAGTGGAAGGAACATTCAATGATATTTGCGATGCCTAACAAGCCAGGGGAGTTCAGCCGCTTTGATTTTCCTGAAGCTCTTCCTGCGCCATTAAATGGAATTTTGGCCATACTAAAGAACAACGAAATGCTTACGTGGCCCGAGAAAGTCAAATTTGCTATTGGACTCTTGCCAGCAATGCTTGGAGGGCAATCTTATGTTGAAGCTCAAGACGGTTTAAGTGTTAAGGACTGGATGAGAAAGCAAGGTGTGCCTGATAGGGTGACAGATGAGGTGTTCATTGCCATGTCAAAGGCACTTAACTTCATAAACCCTGACGAGCTTTCGATGCAGTGCATTTTGATTGCTTTGAACAGATTTCTTCAGGAGAAACATGGTTCAAAAATGGCCTTTTTAGATGGTAACCCTCCTGAGAGACTTTGCATGCCGATTGTGGAACATATTGAGTCAAAAGGTGGCCAAGTCAGACTAAACTCACGAATAAAAAAGATCGAGCTGAATGAGGATGGAAGTGTCAAATGTTTTATACTGAATAATGGCAGTA
modifications: dsRNA of this region
plant outcome [2]: one half of the treated plants appeared to be dead and the other half of the plants had most of the above ground tissues bleached
phytoene desaturase silencing, leaf bleaching [2]: visible leaf bleaching on apical leaves
Northern blot analysis, siRNAs corresponding to the dsRNAs [2]: presence of siRNAs
bleaching of leaves [3]: did not show bleaching of leaves

B3: #6: Anti-sense_PO1, PO2, PO3, PO4 (SEQ ID NOs: 8, 9, 10, 11) (nucleic acid, listed as Amaranthus palmeri)
antisense 1: ACCCTCCACGACTGCCCTTT
antisense 2: GTTTCCTTCACTCTCCAGC
antisense 3: GTAGCTTGAGCCATTATTGT
antisense 4: GTTGATGGTAGTAGCTTGAG
modifications: DNA, backbone not given here
increasing glyphosate efficacy, shikimate accumulation (endogenous EPSPS): increased accumulation of shikimate
suppressing levels of EPSPS mRNA and protein (endogenous EPSPS): more efficacious

B4: EPSPS anti-sense polynucleotides: SEQ ID NOS:279-284, anti-sense to Nicotiana benthamiana EPSPS (nucleic acid)
antisense 1: CTGTGATCATCATATGTATCA
antisense 2: CCTTAACTCTCCAGCTAGCAA
antisense 3: CAGCCCGCAAATGTTTCATTC
antisense 4: GCCGTCAATGGCCGCATTGCT
antisense 5: TCCTTCCCTCAGAAAGGGCAG
antisense 6: TTGCCTCATGCTGCTAATCTG
modifications: listed as DNA, chemistry not given here
plant height (FIG. 36) ([4]; 12 days (PDS and EPSPS) or 10 days (RuBisCO) after treatment): severe stunting
other phenotype [4]: severe damage to the meristem and stem tissues
